Positions count from the first letter of the chain named. In names and notes the source's numbering stands.
B1: His-tagged ySgt2-C (ySgt2 222-346), Q12118 M315D (protein)
chain: SLNLEKTVPEQSRDADVDASQGASAGGLPDLGSLLGGGLGGLMNNPQLMQAAQKMMSNPGAMQNIQKMMQDPSIRQMAEGFASGGGTPNLSDLDNNPALRNMAGNLFGGAGAQSTDETPDNENKQ
B2: His-tagged ySgt2-C (ySgt2 222-346), Q12118 L327D (protein)
chain: B1 chain with D94M, L106D
B3: His-tagged ySgt2-C (ySgt2 222-346), Q12118 M277D (protein)
chain: B1 chain with M56D, D94M
B4: His-tagged ySgt2-C (ySgt2 222-346), Q12118 I286D (protein)
chain: B1 chain with I65D, D94M
B5: His-tagged ySgt2-C (ySgt2 222-346), Q12118 I295D (protein)
chain: B1 chain with I74D, D94M
B6: His-tagged ySgt2-C (ySgt2 222-346), Q12118 L320D (protein)
chain: B1 chain with D94M, L99D
B7: His-tagged ySgt2-C (ySgt2 222-346), Q12118 M323D (protein)
chain: B1 chain with D94M, M102D
B8: His-tagged ySgt2-C (ySgt2 222-346), Q12118 M290D (protein)
chain: B1 chain with M69D, D94M
B9: His-tagged hSgt2-C (hSgt2 213-313), O43765 L224D; F280D (protein)
chain: TGGVGSFDIAGDLNNPGFMSMASNLMNNPQIQQLMSGMISGGNNPLGTPGTSPSQNDLASLIQAGQQDAQQMQQQNPELIEQLRSQIRSRTPSASNDDQQE
B10: His-tagged hSgt2-C (hSgt2 213-313), O43765 M233D; F280D (protein)
chain: B9 chain with D12L, M21D
B11: His-tagged hSgt2-C (hSgt2 213-313), O43765 M247D (protein)
chain: B9 chain with D12L, M35D, D68F
B12: His-tagged hSgt2-C (hSgt2 213-313), O43765 F280D (protein)
chain: B9 chain with D12L
B13: His-tagged hSgt2-C (hSgt2 213-313), O43765 L295D (protein)
chain: B9 chain with D12L, D68F, L83D
B14: His-tagged hSgt2-C (hSgt2 213-313), O43765 L224D (protein)
chain: B9 chain with D68F
B15: His-tagged hSgt2-C (hSgt2 213-313), O43765 L224D; L295D (protein)
chain: B9 chain with D68F, L83D
B16: His-tagged hSgt2-C (hSgt2 213-313), O43765 M233D; L295D (protein)
chain: B9 chain with D12L, M21D, D68F, L83D
B17: MBP-Sbh1 full length (natural protein)
chain: MSSPTPPGGQRTLQKRKQGSSQKVAASAPKKNTNSNNSILKIYSDEATGLRVDPLVVLFLAVGFIFSVVALHVISKVAGKLF

biological target: MBP-Sbh1 full length (UniProt P52870); assay: pull-down (Ni-NTA capture after coexpression, Coomassie quantification); details: experiments performed 3 to 4 times; parent: 1

“His-tagged ySgt2-C (ySgt2 222-346) (from UniProt Q12118) H4A” and “His-tagged hSgt2-C (hSgt2 213-313) (from UniProt O43765) H2/3A” are the same in ratio to parent: 0.27 for the first, 0.27 for the second.

Going from “His-tagged hSgt2-C (hSgt2 213-313) (from UniProt O43765) H5A” to “His-tagged ySgt2-C (ySgt2 222-346) (from UniProt Q12118) H3A”, the ratio to parent falls from 0.67 to 0.19.

Going from “His-tagged hSgt2-C (hSgt2 213-313) (from UniProt O43765) H1A” to “His-tagged ySgt2-C (ySgt2 222-346) (from UniProt Q12118) H2A”, the ratio to parent falls from 0.21 to 0.1.

Compared with “His-tagged ySgt2-C (ySgt2 222-346) (from UniProt Q12118) H5A”, “His-tagged hSgt2-C (hSgt2 213-313) (from UniProt O43765) H0A” is higher in ratio to parent: 0.32 for the first, 0.63 for the second.

Compared with “His-tagged hSgt2-C (hSgt2 213-313) (from UniProt O43765) H4A”, “His-tagged ySgt2-C (ySgt2 222-346) (from UniProt Q12118) H1A” is lower in ratio to parent: 0.55 for the first, 0.03 for the second.

Biological target: T1, MBP-Sbh1 full length, P52870
T1 chain: B17 chain
Assay: as above
Details: chain shown with the change; capture assay repeated three times; parent: 1

First: B1
Second: B2
The ratio to parent of the first is lower: 0.34 for the first, 0.4 for the second.

Going from B3 to B4, the ratio to parent falls from 0.14 to 0.13.

Compared with B5, B6 is higher in ratio to parent: 0.21 for the first, 0.23 for the second.

Compared with B7, B8 is lower in ratio to parent: 0.29 for the first, 0.18 for the second.

Compared with B9, B10 is higher in ratio to parent: 0.21 for the first, 0.59 for the second.

Compared with B11, B12 is higher in ratio to parent: 0.68 for the first, 0.69 for the second.

Going from B13 to B14, the ratio to parent falls from 0.86 to 0.71.

Going from B15 to B16, the ratio to parent rises from 0.16 to 0.44.

biological target: hSgt2 M233D (Homo sapiens) (UniProt O43765); assay: pull-down; capture assay: His-tagged Sgt2 construct coexpressed with MBP-Sbh1 in E. coli; lysate incubated in batch with Ni-NTA resin at 4 °C for 1 h, washed with 20 mM Tris, 150 mM NaCl, 25 mM imidazole, 10 mM BME, pH 7.5, eluted with 300 mM imidazole; Coomassie-stained gel, MBP-Sbh1/Sgt2 ratio normalised to wild type; details: not given

With B17 the percent reduction of binding relative to wild type was 36%.

— publication PMC8010706
